In the DeepSol protein solubility set:

test: soluble on expression in E. coli; label from the status in PepcDB or PDB records

Sequence | soluble on expression in E. coli
GPGSMIGAPWPPEAVFGNTVDRVASPAPVPERKISIADQLHLPLSRFVEKMSWGEKRRVQILHGMLYPATVYLLDECSTDIDVAERRTVLELVRQECEAKDGCCVYATHIFDGIEGWATHLLLMEGGRVVDFKAVEKLTLPLEDYALQFMSKRAHAARGVDGVAAASLSHGSSAAISTTSPACPTTAAAACPTSATTDAPVTYWPRGHADEKRSEIVINCAQLNYKDVFKNLSFQVFRGERVLLCGGNGTGKSTLLNMLGGKQFFDNRQGSLSVLGKRCYDDMLLNALVSYGGDWWTAVPGGEVHVREMLQLRTSRAERLCEMLAVDMDWDVRHISAGEQKRVQLLLHLLDDKPVVLLDEATTDLDVYQRHSLLQFLYEESVQRGVTVVYSTHIFGGVEGWANVVVLLDRTVRGVHAVWRASEGQPIVLQRVVDAIVSLKAREVF | not soluble
MVASSCLSMNDHHLLYQNISQDLDLGALLSSEVIQSLWGGYGELVRLIFAKRSVIVKHVKLPKPSEHPRGWNTDRSHQRKLHSYQVEVSWYAHFSGVMDSHCRVPQGLKTFQSENEWLIVMEDLAEAGFPKVITDAKLEHLRACLTWLANFHARYIGVCSDKLWHTGTYWHLATRPDELEALQDTELKKAAQLIDQTLSQAKFKTLVHGDAKLANFCFEQDELSVAAVDFQYVGHGCAMKDVALFMSSAVKPERCAEMEVWVLDTYFAKLQQALMVYQPNLDPDEVEREWRPLFAVAWADFQRFVKGWSPDHWKINPYTEALTRRALAYLRK | not soluble
MKLGILHFTDSHIKSATDWILSEFSSLVASVKTIYEECDRIYIVFTGDVVYSGSEEEYILASKFLNSIRSLLKTLYKDKVYEQIIFTPGNHDCNFNMDRQARKML | not soluble
MNGIHDVGGMDGFGKVMYVKEEEDIYFTHDWERLALGLVAGCMAQGLGMKAFDEFRIGIELMRPVDYLTSSYYGHWIATVAYNLVDTGVLDEKELDERTEVFSKKPDTKIPRREDPALVKLVEKALNDGLSPLREISASPRFKVGERIKTKNIHPTGHTRFPRYARDKYGVIDEVYGAHVFPDDAAHRKGENPQYLYRVRFEAEELWGYKQKDSVYIDLWESYMEPVSH | soluble
MGSDKIHHHHHHMKLISVRRIWEQAAHNAFTDLIAFQEALFCVFREGTAHVSPDGALRILRSVDGGETWQSVALIRSDEADLRDGKLIEYQGELLLLGGGTLHNKSGLQSHLWRSADGRVWSDALKIADKGYWLWRLTEHQNTLYGVGYRPGPDGDTRLYKSEDGVQFKTWLKVFNNQGYVNETAIVFDQDSGFCLLRRDPVWGPEFFGLLGHSRAPFTDWQWQELDKRIGGPVMLMYQSRLLAVVRLYDEQVRTALVEIHSDTGVVQELLTLPSKGDTSYAGVVIDGNELWVSYYSSHELADSQLDTQNSLDESSRAGKAKTMIYFAKILLS | not soluble
MGSDKIHHHHHHMNKAERQNLIITAIQQNKKMTALELAKYCNVSKRTILRDIDDLENQGVKIYAHYGKNGGYQIQQAQSKIALNLSETQLSALFLVLNESQSYSTLPYKSEINAIIKQCLSLPQTRLRKLLKRMDFYIKFDDTQHMTLPMLFSDILIYCTERNVMLVDHRVDDNIKAENVIFIGLLCKHGHWHAVIYDIAQDKTAELEIENIIDISYSFGKTIQTRDISIDNYHQFLNPIDS | not soluble
MENFAYYTPTRLIFGKGLAIITPRWMRHILNDHTLERFVKFSVDIYGLLRLRKRTFMKYLKHHCRIYEEYNRGRIFGQGVCLFIIYYKLEHHHHHH | not soluble
VTSGTALPSADDLLVLLAVGRTGRFNTAADDLGVNHTTISRRIASLEKSLGGRVLVKAAGGWELTDLGRQALTAAERVEAAVHGLVAEPGRADHLKGVVRVSATDGFSAYIAAPAGALIRSRHPEVSVEIVAITRRASQHRSGLDIEIVVGKPQVHRAEALWLADYTLGLYGAKSYLSAHGTPRQVGDLADHSLVYFIDSMLQVDELDLARRLTVSMRESVTSTNVFVHVEATRASAGIGLLPCFMADRHDDLVRVLPGQVEATLAYWLVARPESLRRPEVAAVVGAIRETVESQRDALAGQ | not soluble
MILGIDIGGANTKITELHENGEFKVHHLYFPMWKNNDKLAEVLKTYSNDVSHVALVTTAELADSYETKKEGVDNILNAAESAFGSNISVFDSNGNFISLESAKTNNMKVSASNWCGTAKWVSKNIEENCILVDMGSTTTDIIPIVEGKVVAEKTDLERLMNHELLYVGTLRTPISHLGNTISFKGVDTNVSSEYFAITADISVVLEKVTTEEYTCDTPDGKGTDKRSSLVRISKVLCSDLDQISEIDAENIAKNYYELWKELILENVENVAEKYGSKKVVITGLGENILKDALADFEVISVAERYGKDVSLATPSFAVAELLKNELLEHHHHHH | soluble
MAHHHHHHMTDIAHGSRYDRDAAISTAAEQVAAGQYAENKPRAIMFVNKRPVEIIPQEENVLEVLEREGITVPKFCYHPILSVAGNCRMCMVQVDGTQNIVVACSTVALPGMSIITDSRLVRDAREGNVELILINHPNDCPICEQATNCDLQNVSMNYGTDIPRYREDKKAVEDFYFDPQTRVVLNRCIHCTRCIRFLNEHAQDFNLGQIGRGGLSEISTFLDELEVKTDNNMPVSQLCPVGKLYMGDADENNDIVRELEAAGATA | not soluble
MIAVQRAVESRSIPPKAIVPVYVATSRMIQNNYSQPYGAERSNKVHYNRVDVGIPQKHVKGVVETNAYKPTHDKYFAAVALQKYDNKEQFKQQLNADLEKKTPGKREIFLFIHGYNNNFADGTFRTAQFTYDYSLNVVTVHYSWPSAGSVPLYIYDRDSANFARDGLIELLTLISETKADQISVIAHSMGNFVIMEAFRTLALQGKYKPIQRITSFLMAAPDIDIDVFERQLNDIKKLPQPTAILVSRADKALAVSGRLTGGHHRVGDGSDIEMLRKNGIAVLDFSNVDGGAHNVFASSPTLMALAREGSLASTIMQGTELSPSQALLADSSSVLEKTTHLILYTPLRLLSPLTRQ | not soluble
GPGSMKKCWVFDCAAPGLYCEPRRLLKPFSTDSILDAAGRAFETVEDGLKATTWRTHHAFSARCGLTSVTRSDSTTCGKGVEESSVSRSPEDYREWHADFHLRSPSAEPHVLLSVAPHYLPSRGSGNADDGRKMEVVGSRGRWLKPWRPQTAEEQAAYDAAVLGTPLIWEEPLVLSLDCTADGVFLWSEDHGIYGEKVANRCFERHSSDAGDDSAEFKQEAFLRFRWSEQPPAQTSSVGSGRHEMKEEHVESPNVSKCGELRVFRGQRTKVEAEEPHVERISYEEADVDAGSGGFLWQSVLHRIISCGPVPKEVYFAPYVTLMESGDEVSLL | not soluble
MGSDKIHHHHHHMNPNIAKISSLLSDPSRSSILLSLMDGRIHPAGELAYLANIKPQTASFHLNKLLEAKLISVEKHGRHRYYRLADSDAANVIEQLLHIAPKAKVKSLKESKEKKDLHFARTCYDHLAGYVGVQMAHSLVEQGMLKKVDLNFEVTSEGALFFSKLGINEEQQRNKRRAFARCCLDWSERQHHIAGALGNALLVRMLEEEWIVRMPKTRAIRITQSGKIAFEKHLNVKI | not soluble
MSLGNDRWRAEFPLERIGTYEFRVEAWRDVFATLHADLEKKRAANTVLPVDVQEAVAAVQAAQARSDGALAERLQTVLTRIGAQSEPLQQLAIVLEPDTAQAMALADDKPFRSEYPVTFRVESERRAAHFSSWYELFPRSQSGDASRHGTFDDVIKRLPHIRAMNFDVLYMPPIHPIGLNNRKGRNNSVTAVEGEPGSPYAIGATDGGHTEVHAELGGLEGFRRLIEAARAQGLEVALDFAIQCAPDHPWLKEHKDWFTWRADGSIPYAENPPKKYQDIVNVDFYASGAVPDLWNTLRDAVLFWVNEGVTLFRVDNPHTKPFPFWEWLIADVRGRRPDVVFLSEAFTRPKMMYRLAKCGFSQSYTYFTWRNHKHELQAYVEELNDGVPRECFRPHFFVNTPDINPLFLQTSGRNGHLIRAALATTLSGLWGMYQGFELCEATPLAPGKEEYLDSEKFQLRAWPERVPGDIVEEITRFNQLRRMHPELQSHLGTRFYQAHNDQVLYYGKFLDAGYLSRSRSMVLVAINLDPHAGQDADIEIPLWELGLPDHASVAVEDLWDGHRFAWHGKYQHIRLEATRPFALWRIRAGEGHHHHHH | not soluble
MKSKVAIVRTKPSTVLEDYHRLMNLAEYQNYISKDVDTALKINISWHFFYPGSSTTPWQLEGVIRALKRDGYNPELIHGCHNRTVVIDAHLGERENKQINVIKAHNLRNIHLYEGEEWIDIREAVGDLTKKFLCLNEVYPKGFSIPKRFIGENIIHLPTVKTHVFTTTTGAMKNAFGGLLNEKRHWTHPVIHETLVDLLMIQKKIHKGIFAVMDGTFAGDGPGPRCMVPHVKNVLLASADQVAIDAVAAKLMGFDPLKDCKYIRLAHDAGLGCGDVRQIEIVGDVDALNENWNFVGPYKKMTFASKCQHLIYWGPLKKPVEWTLKTILAPWSYIASVVYHDMYWYPKNYGRVEEILNSDWGRLFANWEQLQLPADDLSVPGWEHVGDKPLKLDKETSKMIRKAFRVLGTAIREAPEFSAKKSKKACK | soluble
MDKFRVQGPTKLQGEVTISGAKNAALPILFAALLAEEPVEIQNVPKLKDVDTSMKLLSQLGAKVERDGSVHIDARDVNVFCAPYDLVKTMRASIWALGPLVARFGQGQVSLPGGCTIGARPVDLHISGLEQLGATIKLEEGYVKASVDGRLKGAHIVMDKVSVGATVTIMCAATLAEGTTIIENAAREPEIVDTANFLITLGAKISGQGTDRIVIEGVERLGGGVYRVLPDRIETGTFLVAAAISRGKIICRNAQPDTLDAVLAKLRDAGADIEVGEDWISLDMHGKRPKAVNVRTAPHPAFPTDMQAQFTLLNLVAEGTGFITETVFENRFMHVPELSRMGAHAEIESNTVICHGVEKLSGAQVMATDLRASASLVLAGCIAEGTTVVDRIYHIDRGYERIEDKLRALGANIERVKGELVPR | soluble
MGSDKIHHHHHHMYSSAHSGSNESNLIAFPMAATSKTALLVQVDPFQSEVWSTALASQSITVIKEGADVDLSNMLGQMASAGLTLPDLIIVDMATEGMNPFAFCRFCREQHPSVKVLLTNSTQTQIAESEQRWAMSQGAQDLLPAFQTDSLLTDLLTALGRTSGVLGLPNLDQQALIQILPKLLEPKAEATETVALPAPSVAEPSVPPAPKAQRTYRGRPY | not soluble
MLNRNRNVNKQNGHQKQNGAQKSELRGKNAPPYLERETCLGRNDIFVVEKMIAGGGFGQVYRARNTETQEEVAVKVERATTNDSQRMILESKVLDDMLGSKHFPNVYYIGPYHSYNFIVMQMLGKNIGDIRKMMPNKKISILSSVRIGIQIIEALSLLHSKGWLHRDLKPTNCCLGLDEKRKTVYLVDFGMSRKFRNDNGSLRESRTYCGFRGTTRYCSYRMHDRREQGPVDDLWCLYYSLGELIEGCLPWRDIESADEMAHVKKILKHEDIFHSMPSKFASFGRNLRRLRPANTPDYTKFQNILAYCVKFVDDNAEFEWDVMDY | not soluble
MSLIKCVCLVIEEQEKLLLVQSRNREKYYFPGGKIDIGETYKQALQRELNEELQLDIPESSLIYMHTVVGEAYPQKNMKTELNCFYTTADIDWSTLVPSQEITDLQWIDKKDEHKIAPAVITWIEEQQHFKNIEREGHHHHHH | soluble
MGSDKIHHHHHHMIITPDTLKALFTGFKKNFQDGLKMAESQYKEIATVIPSSTASNTYGWLGQWPAFREWVGDRVFQDMKAHGYAITNKHFESSVKVNRNDIEDDNVGIYAPMMTEMGRASAVHPDELVFALLKNAHATLCYDGQNFFDTDHPVYEKVDGTGQASTVSNIFAGSEAAWYLLDTTRALKPLIYQERKAKQFTAMTADTDEGVFMRNEYRYGVDGRCNVGLGFWQMAAKSQEKLDAAGFEKAYNAMVSLKGDGGRPLAIRPNVLLVPPALENAAKELVEGDRLANGAYNPNKGKAKVIVSPWLL | not soluble
MEFQKKKQKVIQVKEIKFRPGTDEGDYQVKLRSLIRFLEEGDKAKITLRFRGREMAHQQIGMEVLNRVKDDLQELAVVESFPTKIEGRQMIMVLAPKKKQ | soluble
